Data taken from publication PMC4439613, “TRIP13 is a protein-remodeling AAA+ ATPase that catalyzes MAD2 conformation switching” (eLife, 2015).

T1: PCH-2 (Caenorhabditis elegans, UniProt Q09535)
T1 construct: full-length (424 residues), N-terminal His6 tag removed with TEV protease, E. coli Rosetta 2 (DE3) pLysS
T1 sequence (Q09535 1-424): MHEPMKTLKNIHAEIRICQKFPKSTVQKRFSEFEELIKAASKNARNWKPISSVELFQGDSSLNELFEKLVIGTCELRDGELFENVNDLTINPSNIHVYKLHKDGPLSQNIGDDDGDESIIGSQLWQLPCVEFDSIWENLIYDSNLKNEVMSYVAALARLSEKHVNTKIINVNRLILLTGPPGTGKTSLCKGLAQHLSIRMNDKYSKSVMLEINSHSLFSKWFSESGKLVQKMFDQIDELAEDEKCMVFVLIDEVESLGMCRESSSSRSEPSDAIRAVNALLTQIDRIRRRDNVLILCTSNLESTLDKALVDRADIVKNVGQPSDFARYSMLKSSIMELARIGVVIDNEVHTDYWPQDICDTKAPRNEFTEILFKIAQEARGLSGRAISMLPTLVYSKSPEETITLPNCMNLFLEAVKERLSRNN

T2: M. musculus TRIP13^E253Q (M. musculus, UniProt Q3UA06 1-432, E253Q)
T2 construct: TRIP13, M. musculus, full length, Walker B mutation E253Q; also called Walker B mutant; ATP hydrolysis-defective TRIP13; source: E. coli Rosetta 2 (DE3) pLysS, purified (Ni-NTA, Hitrap Q ion exchange, Superdex 200 SEC); not shown: His6, N-terminal, cleaved
T2 sequence (looked up): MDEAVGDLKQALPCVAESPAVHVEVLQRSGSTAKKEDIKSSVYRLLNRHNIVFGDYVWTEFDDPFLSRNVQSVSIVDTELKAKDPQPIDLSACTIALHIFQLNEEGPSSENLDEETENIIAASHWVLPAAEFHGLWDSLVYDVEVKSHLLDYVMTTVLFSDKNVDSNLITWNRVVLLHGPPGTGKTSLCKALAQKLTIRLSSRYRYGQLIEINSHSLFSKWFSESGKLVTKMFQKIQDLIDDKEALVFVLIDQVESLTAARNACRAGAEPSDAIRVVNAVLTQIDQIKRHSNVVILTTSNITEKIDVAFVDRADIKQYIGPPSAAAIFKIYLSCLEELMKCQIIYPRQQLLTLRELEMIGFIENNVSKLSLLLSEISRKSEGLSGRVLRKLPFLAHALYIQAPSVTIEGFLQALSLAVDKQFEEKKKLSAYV


Columns and labels:
[1] = biological target: T1, PCH-2; assay: X-ray crystal structure, […] Å; type: binding; details: ATPase active site of chains B and E; ADP co-purified, no nucleotide added
[2] = biological target: T2, M. musculus TRIP13^E253Q; assay: SEC-MALS; TRIP13^E253Q with p31(comet) and C-MAD2^R133A, protocol as for the size exclusion analysis; details: both partners purified
[3] = biological target: T2, M. musculus TRIP13^E253Q; assay: SEC; equimolar (10 nanomoles each) TRIP13^E253Q, p31(comet) and C-MAD2^R133A in 300 μl, 20 mM Tris-HCl pH 7.5, 300 mM NaCl, 2 mM ATP, on ice 30 min; Superdex 200 Increase 10/300 GL with 0.1 mM ATP; Coomassie gels of fractions; details: both partners purified

| stoichiometry N [2] [copy per TRIP13 hexamer] | stoichiometry N [3] | Molecule | X-ray crystal structure, 2.3 Å [1] |
| --- | --- | --- | --- |
| – | – | Nc1ncnc2c1ncn2[C@@H]1O[C@H](COP(=O)(O)OP(=O)(O)O)[C@@H](O)[C@H]1O [ADP] | two subunits in the hexamer (chains B and E) are bound to ADP |
| ~1 | ~6 TRIP13^E253Q : p31(comet):MAD2 (molar ratio) | M. musculus p31(comet):C-MAD2^R133A complex (complex, p31(comet), M. musculus, full length; MAD2, M. musculus, full length, R133A, closed conformer; Heterodimer of m12 and m9; also called p31(comet):MAD2; source: formed from separately purified proteins (E. coli Rosetta 2 (DE3) pLysS); not shown: His6, N-terminal, cleaved; copies: 1 + 1) chain 1: MAASGEEDMSELSPAAAPNLDWYEKPEETHAPEVDLETVIPPAQEPSNPAEPFCPRDLVPVVFPGPVSQEDCCQFTCELLKHILYQRHQLPLPYEQLKHFYRKVPQAEDTARKKAWLATEARNRKCQQALAELESVLSHLRDFFARTLVPQVLILLGGNALSPKEFYELDLSRLAPFGVDQGLNTAACLRRLFRAIFLADPFSELQTPPLMGTIVMVQGHRDCGEDWFQPKLNYRVPSRGHKLTVTLSCGRPSVPAMASEDYIWFQAPVTLKGFHE chain 2: MAQQLAREQGITLRGSAEIVAEFFSFGINSILYQRGIYPSETFTRVQKYGLTLLTTTDPELIKYLNNVVEQLKEWLYKCSVQKLVVVISNIESGEVLERWQFDIECDKTAKEEGVRREKSQKAIQDEIRSVIAQITATVTFLPLLEVSCSFDLLIYTDKDLVVPEKWEESGPQFITNCEEVRLRSFTTTIHKVNSMVAYKTPVND | – |
